Data from publication doi:10.1101/2022.04.10.487811 (bioRxiv, 2022).

Molecular target: SARS-CoV-2 Beta-variant Spike with six stabilizing proline substitutions (S-6P) (SARS-CoV-2 Beta variant, strain)
Assay: BLI

B1: C143 variant VL T33N-G53V, IgG (antibody, V domains shown)
VH: EVQLVESGGGLVQPGGSLRLSCAASGFSVSTKYMTWVRQAPGKGLEWVSVLYSGGSDYYADSVKGRFTISRDNSKNALYLQMNSLRVEDTGVYYCARDSSEVRDHPGHPGRSVGAFDIWGQGTMVTVSS
VL: QSALTQPASVSGSPGQSITISCTGTSNDVGSYNLVSWYQQYPGKAPKLLIFEVTKRSSGISNRFSGSKSGNTASLTISGLQGEDEADYYCCSYAGASTFVFGGGTKLTVL
- binding result: binds
